Where no end group is shown, it is not given here. [ ]: non-standard residue; d: D form. The star is where a group is joined. Desaminotyrosyl = O=C(CCc1ccc(O)cc1)*; Cha = N[C@@H](CC1CCCCC1)C(=O)O; dCha = N[C@H](CC1CCCCC1)C(=O)O; Aib = CC(C)(N)C(=O)O

This is an account of results in patent US9724381B2 (THE ADMINISTRATORS OF THE TULANE EDUCATIONAL FUND, priority 2009, dated 2017).

The target in assay [1] is T1, Ghrelin/GHRP/GHS Receptor (Rattus norvegicus, UniProt O08725). Briefly: In vitro GH release from isolated pituitary glands, pituitary incubation method. It is filed as cell-based. Conditions: Table 1. As for the experimental part:
Hormonal activities were obtained from in vitro studies using pituitaries of 20 day old CD-1 strain Sprague Dawley female rats. Two pituitaries were incubated for a total of 4-6 hours. Medium was removed each hour for RIA of GH level and fresh medium was added again. After two one hour preincubation periods (P1-P2), the vehicle/peptides were added to two one hour incubations (I3-I4). Peptide activity was calculated as the change in the hormonal level (delta) between I3+I4 and P2. For antagonist activity, the incubation was continued for 2 additional hours (I5-I6) where both the peptide and a stimulator of GH secretion was added and the antagonist activity was calculated as the change in the hormonal level (delta) between I5+I6 and P2. The peptides were assayed in triplicate and the hormone was assayed in duplicate. Each value recorded represents the mean of 6. The GH RIA reagents were distributed by the NIH. Control data was collected from isolated pituitary glands treated with only the corresponding vehicle in the absence of peptide or stimulator. Control stimulated data was collected from isolated pituitary glands treated with stimulator alone in the absence of any peptide.

In assay [2] the target is T1, Ghrelin/GHRP/GHS Receptor. Briefly: In vitro GH release from cell culture of pituitary cells. Details: After dispersion, the cells were collected by centrifugation, wash with DMEM and placed into culture well; endogenous in cells; host or cells: dispersed primary rat anterior pituitary cells. Conditions: Table 8. The format is cell-based. As to the method:
In vitro GH Release-Female rats of the CD-1 strain were housed in a constant temperature room at 24° C. with 14 h light and 10 h darkness. The rats were fed Purina Rat chow and water at libitum. All studies were started between 0800-1000 hours. Pituitaries of mature female Sprague Dawley rats were rapidly removed after decapitation, neurointermediate lobe discarded and then placed in a pH 7.4 buffer. The pituitaries were cut into ˜3-mm pieces and then transferred to a flask containing HEPS buffer with trypsin and incubated at 37° C. Cells were triturated several times during this period. After dispersion, the cells were collected by centrifugation, wash with DMEM and placed into culture well. Cell cultures were maintained for 4 days at 37° with 8% CO2 added to the incubator atmosphere. After 4 days in culture, cells were washed with lactated Ringer's solution adjusted to pH 7.2-7.4 and then vehicle, peptide alone or peptide plus stimulator was added to media. Incubation time was 60-120 minutes after which media was removed from each well for GH determination. The GH RIA reagents were distributed by the NIH. Control data was collected from cell cultures treated with only the corresponding vehicle in the absence of peptide or stimulator. Control stimulated data was collected from cell cultures treated with stimulator alone in the absence of any peptide.

The mark [3] stands for this setting: peptide antagonist 10 μg/ml + stimulator His-DTrp-Ala-Trp-DPhe-Lys-NH2 10 ng/ml.
The mark [4] stands for this setting: peptide antagonist 30 μg/ml + stimulator His-DTrp-Ala-Trp-DPhe-Lys-NH2 10 ng/ml.
Setting [5] is: peptide antagonist 3 μg/ml + stimulator His-DTrp-Ala-Trp-DPhe-Lys-NH2 10 ng/ml.
Where [6] appears, read: peptide antagonist 0.3 μg/ml + stimulator His-DTrp-Ala-Trp-DPhe-Lys-NH2 10 ng/ml.
Setting [7] is: peptide antagonist 1 μg/ml + stimulator His-DTrp-Ala-Trp-DPhe-Lys-NH2 10 ng/ml.
The mark [8] stands for this setting: peptide antagonist dosage 1 (head prints μg/i.v.).
Setting [9] is: peptide antagonist dosage 3 (head prints μg/i.v.).
Where [10] appears, read: peptide antagonist dosage 10 (head prints μg/i.v.).
Setting [11] is: peptide antagonist dosage 30 (head prints μg/i.v.).

T1 sequence (O08725 whole entry): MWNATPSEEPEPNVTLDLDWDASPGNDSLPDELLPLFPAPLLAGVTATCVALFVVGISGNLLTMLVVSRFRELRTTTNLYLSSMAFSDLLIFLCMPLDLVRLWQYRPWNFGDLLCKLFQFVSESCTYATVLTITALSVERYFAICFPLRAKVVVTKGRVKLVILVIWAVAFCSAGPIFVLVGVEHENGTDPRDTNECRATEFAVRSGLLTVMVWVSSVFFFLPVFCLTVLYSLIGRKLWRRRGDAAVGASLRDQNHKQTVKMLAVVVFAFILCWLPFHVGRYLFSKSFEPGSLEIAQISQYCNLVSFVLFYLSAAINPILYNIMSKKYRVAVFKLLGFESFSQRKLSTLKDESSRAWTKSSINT

“DeaminoTyr-DTrp-Ser-Trp-DPhe-Lys-NH2 ([Desaminotyrosyl][dW]SW[dF]K-NH2; SMILES NCCCC[C@H](NC(=O)[C@@H](Cc1ccccc1)NC(=O)[C@H](Cc1c[nH]c2ccccc12)NC(=O)[C@H](CO)NC(=O)[C@@H](Cc1c[nH]c2ccccc12)NC(=O)CCc1ccc(O)cc1)C(N)=O)”: the “Change in stimulated GH release versus preincubation (delta)” value (from here on “Change … (delta)”) in assay [1] (setting [3]) is 3325 ± 391 ng/mL; in assay [1] (setting [4]), 3810 ± 621 ng/mL.
For “DesaminoTyr-DTrp-Ala-Trp-DPhe-NH2 ([Desaminotyrosyl][dW]AW[dF]-NH2; SMILES C[C@H](NC(=O)[C@@H](Cc1c[nH]c2ccccc12)NC(=O)CCc1ccc(O)cc1)C(=O)N[C@@H](Cc1c[nH]c2ccccc12)C(=O)N[C@H](Cc1ccccc1)C(N)=O)”, the “Change … (delta)” value was 1302 ± 269 ng/mL in assay [1] (setting [5]) and -959 ± 75 ng/mL in assay [1] (setting [4]).
For “DesaminoTyr-DTrp-DLys-Trp-DPhe-NH2 ([Desaminotyrosyl][dW][dK]W[dF]-NH2; SMILES NCCCC[C@@H](NC(=O)[C@@H](Cc1c[nH]c2ccccc12)NC(=O)CCc1ccc(O)cc1)C(=O)N[C@@H](Cc1c[nH]c2ccccc12)C(=O)N[C@H](Cc1ccccc1)C(N)=O)”, the “Change … (delta)” value in assay [1] (peptide antagonist 0.1 μg/ml + stimulator His-DTrp-Ala-Trp-DPhe-Lys-NH2 10 ng/ml) is 4297 ± 1061 ng/mL; in assay [1] (setting [6]), 2404 ± 802 ng/mL; in assay [1] (setting [7]), 688 ± 327 ng/mL; in assay [1] (setting [5]), -466 ± 432 ng/mL; in assay [1] (setting [3]) it was -1068 ± 318 ng/mL; in assay [1] (setting [4]) it was -576 ± 110 ng/mL.
As for “DesaminoTyr-DTrp-Ser-Trp-DPhe-NH2 ([Desaminotyrosyl][dW]SW[dF]-NH2; SMILES NC(=O)[C@@H](Cc1ccccc1)NC(=O)[C@H](Cc1c[nH]c2ccccc12)NC(=O)[C@H](CO)NC(=O)[C@@H](Cc1c[nH]c2ccccc12)NC(=O)CCc1ccc(O)cc1)”, the “Change … (delta)” value in assay [1] (setting [3]) came to 3119 ± 488 ng/mL; in assay [1] (setting [4]), 3258 ± 682 ng/mL.
For “His-DTrp-DArg-Trp-DPhe-NH2 (chain 1 H[dW][dR]W[dF]-NH2; chain 2 H[dW][dR]W[dF]-NH2; not fully specified; printed as His-DTrp-DArg-Trp-DPhe-NH2)”, the “Change … (delta)” value in assay [1] (setting [5]) is 341 ± 222 ng/mL; in assay [1] (setting [3]), -125 ± 101 ng/mL; in assay [1] (setting [4]), -122 ± 44 ng/mL.
As for “His-DTrp-DLys-Trp-DPhe-Lys-NH2 (H[dW][dK]W[dF]K-NH2; N-terminus assumed; SMILES NCCCC[C@H](NC(=O)[C@@H](Cc1ccccc1)NC(=O)[C@H](Cc1c[nH]c2ccccc12)NC(=O)[C@@H](CCCCN)NC(=O)[C@@H](Cc1c[nH]c2ccccc12)NC(=O)[C@@H](N)Cc1c[nH]cn1)C(N)=O)”, the “Change … (delta)” value in assay [1] (setting [6]) was 952 ± 200 ng/mL; in assay [1] (setting [7]), 324 ± 181 ng/mL; in assay [1] (setting [5]), 134 ± 91 ng/mL; in assay [1] (setting [3]) it was -83 ± 132 ng/mL; in assay [1] (setting [4]), -175 ± 59 ng/mL.
In the case of “His-DTrp-DLys-Trp-DPhe-NH2 (H[dW][dK]W[dF]-NH2; N-terminus assumed; SMILES NCCCC[C@@H](NC(=O)[C@@H](Cc1c[nH]c2ccccc12)NC(=O)[C@@H](N)Cc1c[nH]cn1)C(=O)N[C@@H](Cc1c[nH]c2ccccc12)C(=O)N[C@H](Cc1ccccc1)C(N)=O)”, the entries for the “Change … (delta)” value in assay [1] (setting [6]), in assay [1] (setting [5]) and in assay [1] (setting [4]) were 1765 ± 160 ng/mL, 949 ± 178 ng/mL and 91 ± 103 ng/mL, respectively.
In the case of “His-DTrp-DTrp-Phe-Met-NH2 (H[dW][dW]FM-NH2; N-terminus assumed; SMILES CSCC[C@H](NC(=O)[C@H](Cc1ccccc1)NC(=O)[C@@H](Cc1c[nH]c2ccccc12)NC(=O)[C@@H](Cc1c[nH]c2ccccc12)NC(=O)[C@@H](N)Cc1c[nH]cn1)C(N)=O)”, the “Change … (delta)” value was 1542 ± 523 ng/mL in assay [1] (setting [6]); 323 ± 69 ng/mL in assay [1] (setting [7]); 445 ± 188 ng/mL in assay [1] (setting [5]); 287 ± 68 ng/mL in assay [1] (setting [3]); -319 ± 95 ng/mL in assay [1] (setting [4]).
For “Tyr-DTrp-DLys-Trp-DPhe-NH2 (Y[dW][dK]W[dF]-NH2; N-terminus assumed; SMILES NCCCC[C@@H](NC(=O)[C@@H](Cc1c[nH]c2ccccc12)NC(=O)[C@@H](N)Cc1ccc(O)cc1)C(=O)N[C@@H](Cc1c[nH]c2ccccc12)C(=O)N[C@H](Cc1ccccc1)C(N)=O)”, the “Change … (delta)” value was -480 ± 95 ng/mL in assay [1] (setting [5]) and -363 ± 66 ng/mL in assay [1] (setting [4]).
For “Tyr-DTrp-DTrp-Phe-Phe-NH2 (Y[dW][dW]FF-NH2; N-terminus assumed; SMILES NC(=O)[C@H](Cc1ccccc1)NC(=O)[C@H](Cc1ccccc1)NC(=O)[C@@H](Cc1c[nH]c2ccccc12)NC(=O)[C@@H](Cc1c[nH]c2ccccc12)NC(=O)[C@@H](N)Cc1ccc(O)cc1)”, the figures for the “Change … (delta)” value in assay [1] (setting [6]), in assay [1] (setting [3]) and in assay [1] (setting [4]) were 1274 ± 329 ng/mL, 1034 ± 182 ng/mL and -167 ± 157 ng/mL, respectively.
For “Tyr-DTrp-Lys-Trp-DPhe-NH2 (Y[dW]KW[dF]-NH2; N-terminus assumed; SMILES NCCCC[C@H](NC(=O)[C@@H](Cc1c[nH]c2ccccc12)NC(=O)[C@@H](N)Cc1ccc(O)cc1)C(=O)N[C@@H](Cc1c[nH]c2ccccc12)C(=O)N[C@H](Cc1ccccc1)C(N)=O)”, in assay [1] (peptide antagonist 100 μg/ml + stimulator His-DTrp-Ala-Trp-DPhe-Lys-NH2 10 ng/ml), the “Change … (delta)” value is -555 ± 121 ng/mL.
In the case of “αAib-DTrp-DAla-cyclohexylAla-NH2 ([Aib][dW][dA][Cha]-NH2; N-terminus assumed; SMILES C[C@@H](NC(=O)[C@@H](Cc1c[nH]c2ccccc12)NC(=O)C(C)(C)N)C(=O)N[C@@H](CC1CCCCC1)C(N)=O)”, the “Unstimulated Basal GH release from cell cultures of pituitary cells” value came out at 1086 ± 52 ng/mL in assay [2] (setting [8]), 1103 ± 18 ng/mL in assay [2] (setting [9]), 994 ± 22 ng/mL in assay [2] (setting [10]) and 704 ± 115 ng/mL in assay [2] (setting [11]).
“αAib-DTrp-DcyclohexylAla-NH2 ([Aib]-[dW]-[dCha]-NH2; N-terminus assumed; SMILES CC(C)(N)C(=O)N[C@H](Cc1c[nH]c2ccccc12)C(=O)N[C@H](CC1CCCCC1)C(N)=O)”: the “Unstimulated Basal GH release from cell cultures of pituitary cells” value is 980 ± 44 ng/mL in assay [2] (setting [8]), 826 ± 32 ng/mL in assay [2] (setting [9]), 602 ± 53 ng/mL in assay [2] (setting [10]) and 492 ± 11 ng/mL in assay [2] (setting [11]).
